From publication PMC6450514, “Pseudomonas aeruginosa esterase PA2949, a bacterial homolog of the human membrane esterase ABHD6: expression, purification and crystallization” (Acta Crystallographica. Section F, Structural Biology …, 2019)

Test system: CCCC(=O)Oc1ccc([N+](=O)[O-])cc1
Assay: purified protein
Conditions: 8 nM enzyme, 0.05-1 mM substrate, n-octyl beta-D-glucoside

**Q.** Which Km does the source give for PA2949 (Pseudomonas aeruginosa PAO1) here?
**A.** 170 ± 10 µM

**Q.** What about the kcat of the same substance?
**A.** 520.4 ± 31.7 s⁻¹
